According to the nanobody polyreactivity screen of Harvey et al. (2022):

Assay: yeast display, Sf9 membrane polyspecificity reagent, FACS + sequencing; frameworks hold sequencing errors
Procedure, shortened: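 Synthetic nanobody libraries on Saccharomyces cerevisiae BJ5465 were galactose-induced for 36–48 hours, stained 1 hour at 4 °C with 10% biotinylated, detergent-solubilized Sf9 membrane reagent and enriched on streptavidin microbeads. FACS then separated cells into low and high (top ~1%) gates by anti-HA (expression) and streptavidin (reagent binding) fluorescence. Genes were colony-PCR amplified, MiSeq 2 × 250 sequenced and CDR-length filtered. A clone's polyreactivity label is that of its gate of origin.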

Sequence	polyreactivity (PSR sort gate)
QVQLVESGGGLVQAGGSLRLSCAASGLTFDYYVMGWYRQAPGKERELVATISWSGDITYYADSVKGRFTISRDNAKNTVYLQMNSLKPEDTAVYYCATDKSYSSWSAQYDYWGQGTQVTVSS	low polyreactivity
QVQLVESGGGLVQAGGSLRLSCAASVRIFWPYAMGWYRQAPGKERELVAAITLSGGSTYYADSVKGRFTISRDNAKNTVYLQKNCMKPVETAVYYSAGDHKRTWGGDQGKSHGYWGQGTKVTVSS	low polyreactivity
QVQLVESGGGLVQAGGSLRLSCAASGFTFSWYALGWYRQAPGKERELVAAINWSGTSTYYADSVKGRFTISRDNAKNTVYLQMNSLKPEDTAVYYCNVVVYRWSPVSKLDYWGQGTQVTVSS	high polyreactivity
QFQLVESGGGLVQAGGSLRLSCAASGRTFIGYAMGWYRQAPGKERELVAAITSDGGTNYADSVKGRFTISRDNAKNTVNLQMNSQKPEDTAVYYCGARRRVSYHLYGYWGQGTQVTLSS	high polyreactivity
QVQLVESGGGLVQAGGSLRLSCAASGSIFRYYAMGWYRQAPGKERELVATISSGGRTYYADSVKGRFTISRDNAKNTVYLQMNSQKPEDTAVYYCAARYGTTRYGFDYWGQGTQVTVSS	high polyreactivity
QVQLVESGGGLVQAGGSLRLSCAASGSIFVSYAMGWYRQAPGKERELVAAITYSGGRTYYADSVKGRFTISRDNAKNTVYLQMNCLKPEDTAVYYCAKRVSYPVRFPYFSYDYWGQGTQVTVSS	low polyreactivity
QVQLVESGGGLVQAGGSLRLSCAASGRTFVYNAMGWSRQAPGKERELVAAITSGGSTYYADSVKGRFTISRDNAKNTVYLQMNSLKPEDTAVYYCAAYKRGYYWGQGTQVTVSS	high polyreactivity
QVQLVESGGGLVQAGGSLRLSCAASGLTFYAYAMGWYRQAPGKERELVAAISWTGGRTYYADSVKGRFTISRDNAKNTVYLQMNSLKPEDTAVYYCAAEVFTTGSFRRYDYWGQGTQVTVSS	high polyreactivity
QVQLVESGGGLVQAGGSLRLSCAASGSTFGGNVMGWYRPAPGKERELVATISRSGGSTYYADSVKGRFTISRDNAKNTVYLQMNSLKPEDTAVYYCAARTLHYSPSTFYRYQYDYWGQGTQVTVSS	high polyreactivity
QVQLVESGGGLVQAGGSLRLSCAASGSTFDGNAMGWYRQAPGKERELVASITQRASNTYYADSVKGRFTISRDNAKNTVDLQMNSLKPEDTAVYYCARQWYWRPVYYIGQGYEYWGQGTQVTVSS	low polyreactivity
QVQLVESGGGLVQAGGSLRLSCAASGFTFVSYAMGWYRQAPGKERELVAAISKRGGSTSYADSVKGRFTISRDNAKNTVYLQMNSLKPEDTAGYYCAARYGSSYSWSNYWGQGTQVTVSS	high polyreactivity
QVQLVESGGGLVQAGGSLRLSCAASGITFRYYAMGWYSQAPGKERELVAAITRGGRTNYADSVKGRYTISRDNAKNTVYLQMNSLKPEDTAVYYCAAGRVGRLSEYNYWGQGTQVTVSS	high polyreactivity
QDQLVESGGGLVQAGGSLRLSFAASGSIFGVNALGWYRQAPGKERELVAAISARGGSTYYADSVKGRFTISRDNAKNTVYLQMNSQKPEDTAVYYCAATFRARPRENYWGQGTQVTVSS	high polyreactivity
QDQHVESGGGLVQAGGSLRLSCAASGSTFRYYAMGWYRQRPGKESEMVAAITRRGGSTYYADSVKGRFTISRDNAKYTVYLQMNSLKQADTAVYYCAAYRIYYSGYGYYYYWGQGTQVTVSS	high polyreactivity
QVQLVESGGGLVQAGGSLRLSCAASGSIFPSNAMGWYRQAPGKERELVAAINRDGITNYADSVKGRFTISRDNAKNTVYLQMNSLKPEDTAVYYCAAEFAWQWWEYGYWGQGSQVTVSS	low polyreactivity
QVQLVESGGGLVQAGGSLRLSCAASGSIFADYTMGWYRQAPGKERELVAAITSGGSTYYADSVKGRFTISRDNAKNTVYLQMNSLKPEDTAVYYCAAYYGGRGYWGQGTQVTVSS	low polyreactivity
QVQLVESGGGLVQAGGSLRLSCAASGIFTYTMGWYRQAPGKERELVAAITNGSTYYADSVKGRFTISRDNAKNTVYLQMNSLKPEDTAVYYCAADRSSAYRWRSAGYYKYDYWGQGTQVTVSS	low polyreactivity
QVQLVESGGGLVQAGGSLRLSCAASGSIFYSYAMGWYRQAPGKEREFVATITWSGGRTYYADSVKGRFTISRDNAKNTFYLQMNSLKPEDTAVYYCNKRLFPYKGDYWGQGTQVTVSS	low polyreactivity
QVQLVESGGGLVQAGASLRLSCAASGRIFRNYAMGWYRQAPGKERELVAAISSSGGSTYYADSVKGRFTISRDIAKNTVYFQMNSLKPEDTAVYYCAAVARVRGRGDYWGQGSQVTVSS	high polyreactivity
QVQLVESGGGLVQAGGSLRLSCAASGSTFTHYAMGWYRQAPGKERELVAAISWGGGTTRYADSVKGRFTISRDNAKNTVYLQMNSLKPEDTAVYYCAAYRTHGPPRAIRFDYWGQGTQVTVSS	high polyreactivity
QVQLVESGGGLVQAGGSLRLSCAASGSTFGSYTMGWYRQAPGKERELVAAINWSGGNTYYADSVKGRFTISRDNAKNTVYLQINSLKPEDTAVYYCAAAFYIYGVEGDYWGQGTQVTVSS	low polyreactivity
QVQLVESGGGLVQAGGSLRLSCAASGSIFYRNAMGWYRQAPGKERELVAAITWSGVNTYYADSVKGRFTISRDNAKNTVYLQMNSLKPEDTAVYYCAVPSRYWLNRGFDYWGQGTQVTVSS	low polyreactivity

Sequence	polyreactivity (PSR sort gate)
QVQLVESGGGLVQAGGSLRLTCAASGNTFWDNAMRWYRQAPGKERELVAAIRWSTGSTHYADSVKGRFTISRDNAKNTVYLQMNSLKPEDTAVYDCAATDYYYYRDKYYGYVYWGQGTHVTVSS	low polyreactivity
QVQLVESGGGLVQAGGSLRLSCASSGRTFGLYDMGWYRQAPGKERELVAGITRRGGRTYYADSVKGRFTISRDNAKNPVELLMHCRKPEDTAVYYCNKVVTRWNQRWRYSEGNYWGQGTQVTVSS	high polyreactivity
QVQLVESGGGLVQAGGSLRLSCAASGIIFLYNDMGGYRHAPGKEREFVATISRSGGSTYYADSVKGRFTISRDNAKNTVYLQMNSLKPEDTAVYYCAADEDSGYGYWGQGTQVTVSS	low polyreactivity
QVQLVESVGGLVQAGGSLRLSCAASGRTFRYYAMGWYRQAPGKERELVAAISKTGGSTYYADSVKGRFTISRDNAKNTVYLQMNSLKPEDTAVYYCAAQSGWGYSTYYYWGQGTQVTVSS	high polyreactivity
QVQLVESGGGLVQAGGSLRLSCAASGSISPQNVMGWYRQAPGKERELVAAITWTGTSTYADSVKGRFTISRDNAKNTVYLQMNSLKPEDTAVYYCAARYYAPRWFRYDYWGQGTQVTVSS	low polyreactivity
QVQLVESGGGLVQAGGSLRLSCAASGRTFVVYAMGWYRQAPGKERELVAVISFTGDSTFYADSVKGRFTISRDNGKNTVYLQMNSLKPEDTAVYYCAADFRRVFSKYSYYLYFDFDYWGQGTLVTVSS	low polyreactivity
QVQLVESGGGLVQAGGSLRLICAASGSTFGYYTMGWYRQAPGKERELVAAISSGGSRTNYADSVKGRFTISRDNAKNTVYLQMNSLIPEDTAVYYCAAGPVSYVRYGSEYDYWGQGTQVTVSS	high polyreactivity
QVQLVESGGGLVQAGGSLRLSCAASGRTFLYYAMGWYRQAPGKERELVASISTGGSTNYADSVKGRFTISRDNAKNTVYLQMNSLKPEDTAVYYCATEYPYSYFSIAHYHHGYWGQGTQVTVSS	low polyreactivity
QVQLVESGGGLVQAGGSLRLSCAASGSIIWFYAMGWYRQAPGKEWELVAAISGSDTSTYYADSVKGRFTISRDNAKNTVYLQMNSLKPEDTSVYYCAADDGTTFGYGYWGQGTQVTVSS	low polyreactivity
QVQLVESGGGLVQAGGSLRLSSAASGFIFPAYAMGWYRQAPGKDRELVAAISKSGGRTYYADSVKGRFTISRDNAKNTVYLQMNSLKPEDTAVYYCNKYRYPREQYTWKYAWGYDYWGQGTQVTVSS	high polyreactivity
QVQLVESGGGLDLAGGSLRLSCASSGLTFFYYAMAWYRQAPGKEMEFVASISRSGGSTYYADSVKGRFTISRDNAKNTVSLQKNSLKPEDTAVYYCAAVERRTPGYGYDYWGQGTQVTVSS	high polyreactivity
QVQLVESGGGLVQAGGSLRLSCAASGRTFRRNAMGWYRQAPGKERELVAAISWRGVSTYYADSVKGRFTISRDNAKNTVYLQMNSLKPEDTAVYYCAVDFLYTRRDYWGQGTQVTVSS	high polyreactivity
QVQLVESGGGLVQAGGSLRLSCAASGITLVRYAMGWNRKAPGKEREFVASITSGASTNYADSVKGRFTISRYNAKNTVYLQMNSLKPDDTAVYYCAAGPPSGGWWGGWYEYWGQGTQVTVSS	high polyreactivity
QVQLVESGGGLVQAGGTLRLSCAASGRIFSGYVMGWYRPAPGKERELVAVISRSGGSTYYADSVKGRFTISRDNAKNTVYLQMNSLKPEDTAVDYCAAKHIDGSRGYDYWGQGTQVTVSS	low polyreactivity
QVQLVESGGGLVQAGGSLRLSCAGSGSIFYSNAMGWSRPAPGKERELVAAICWNGGRTYYADSVKGRFTISRDNAKNTVYLQMNSLKPEDTAVYYCAAKYRNRYDYWGHGTQVTVSS	low polyreactivity
QVQLVESGGGVVQAGGSLRLSCAASGSPFGFYTMGGYRQAPGKERELVAAISWSTGRTYYADSVKGRFTISRDKAKNTVDLQMNSLKPEDTAVYYCAADYYWKLFHEPPAVYDYDYWGQGTQVTVSS	low polyreactivity
QVQLVETGGGLVQAGGSLRLSCAAYGRIFAIYAMGWYRQAPGKDRELVAAISRSGGSTSYADSVKGRFTISRDNAKNTVYLQMNSLKPEDTAVYYCARRITYYQLSRQRYDYWGQGTQVTVSS	high polyreactivity
QVQLVESGGGLVQAGGSLRLSCAASGNTFDIYAMGWYRQAPGKERELVAAISSSGGSTYYADSVKGRFTISRDNAKNTVYLQMNSLKPEDTAVYYFNARHRQWARGYWGQGTQVTVSS	high polyreactivity
QVQLVESGGGLVQAGVSLRLSCAASGSTFVSNAMGWYRQAPGKERELVAAISWSGVRTYYADSVKGRITISRDNAKNTVYLQMNSLKPEDTAVYYCSKRIYGSRSSRFNYWGQGTQLTVSS	high polyreactivity
QVQLVESGGGLVQAGGSLRLSCAASGGIFSYAMGWYRQAPGKERELVADINSDGSTTYADSVKGRFTISRDNAKNTVYLQMNSLKPEDTAVYYCAVDVSVNWPLLERYEYWGQGTQVTVSS	low polyreactivity
QVQLVESGGGLVQAGGSLRLSCAASGITLLYNAMGWSRQAPGKERELVAGITGRGGSTYYADSVKGRFTISRDNAKNTVYLQMNSLKPEDTAVYYCAATTDYRYVGRIVIRDEHWGQGTQVTVSS	low polyreactivity
